The values below come from PMC4851618, “Structural dynamics of a methionine γ-lyase for calicheamicin biosynthesis: Rotation of the conserved tyrosine stacking with pyridoxal phosphate” (Structural Dynamics, 2016).

The data set concerns the molecule itself. The data set is described as follows: crystal structure; sitting drop, 11 mg/ml protein with 1 mM PLP, 12% w/v PEG 20000, 0.1 M MES pH 6.5, 289 K; SAD, 2.10 Å, space group I222; quaternary assembly calculated by PISA.

B1: CalE6, PLP-dependent methionine γ-lyase from Micromonospora echinospora (D7G variant, selenomethionine labeled) (enzyme, UniProt Q8KNG3 1-381, looked up)
chain: MSGMRFGTRLVHGGRRPSAGTGDVVPPIHVSTTYERRAQDEPRYFYGRGENPTREELEECLAGLERAPFATVFSSGQAAAATLLSLVRPGQCVVSTDDVYAGTDGLFDLAARQGVRVRYADLTTPEGIAAALAEPDLALVWIETPTNPLLTVVDVAEVSRRAHERGARVVVDNTFASPVLQQPLALGADVSLYSTTKSIAGHADVLGGALVYRDADLHAAVRAYRTTAGNVPGALDCFLVRRGLHTLSLRVHRQVATARVLVERLRASPVVGAVHYPGLPEHPQHAVVKAQMSAPGAIVSFDYLGGPAERLLDRFTLFTCGVSLGGVHSLVECPALMTHRPLSAEARARRGIGESLIRLSVGIEDPQDLAEDLSRALAGGT
modifications: selenomethionine in place of methionine; Lys 197 bound covalently to PLP (Schiff base, residue LLP 197)
notes: The printed fusion scheme (ENLYFQ/SNA-TARGET) leaves SNA before the protein after TEV cleavage; The forward primer begins the target with GTG (AGC GGT ATG CGC TTC GAC follow), so the first residue behind SNA may be Val, not Met; Crystallised with 1 mM PLP; also called CalE6-MES complex; CalE6 holoenzyme; source: E. coli BL21(DE3), selenomethionine labeled, purified (Ni-NTA, TEV cleavage, …)
In general, stoichiometry N refers to a count of units in the complex or per binding partner. For the protein B1, the “stoichiometry N” value is 4.
